Experimental data published in patent publication US20180008723A1 (UNIVERSITE DES SCIENCES ET TECHNOLOGIES DE LILLE LILLE 1, published 2018).

What was measured:
[1] = biological target: T1, MET-Fc (extracellular MET domain fused with human IgG1-Fc) (human, UniProt P08581 25-932); assay: AlphaScreen saturation assay: NB on streptavidin donor beads, MET-Fc on Protein A acceptor beads
T1 construct: extracellular domain; Recombinant chimera; also called recombinant extracellular MET-Fc chimera; hMET-Fc; not shown: human IgG1 Fc
Experimental: (§1) FIG. 4. K1B and NB MET binding properties. (a) Structure of NK1 dimer (center, PDB 1BHT) and spatial relative orientation of each N (left) and K1 (right) monomers within the dimer. Dashed arrows indicate distances between subdomain C-termini. (b) NB, K1B and MET-Fc binding assay. Increasing concentrations of NB or K1B were mixed with extracellular MET domain fused with human IgG1-Fc (MET-Fc), and incubated with streptavidin AlphaScreen donor beads and Protein A acceptor beads. Error bars correspond to standard error (+/−SD) of triplicates. (c) Endogenous MET capture. Streptavidin coated beads loaded with NB or K1B were incubated with HeLa or Capan-1 total cell lysates. Input, flow-through and elution fractions from NB or K1 loaded beads were analyzed by specific total MET western blot.
(§2) The binding of K1B/S complexes to MET was examined using AlphaScreen technology. K1B was loaded on streptavidin-coated donor beads and incubated with recombinant extracellular MET-Fc chimera loaded on Protein A-coated acceptor beads. If K1B/S donor beads interact with MET-Fc/Protein A acceptor beads, a chemical energy transfer is possible between the beads, leading to fluorescence emission upon laser excitation. […]

[2] = biological target: T2, endogenous MET receptor of human cells (HeLa, Capan-1) (human, UniProt P08581 25-1390); assay: pull-down of endogenous MET from HeLa and Capan-1 total cell lysates on streptavidin beads loaded with NB, total MET western blot
T2 construct: whole, on cells; On living HeLa cells in the signalling assays; from whole cell lysates of HeLa or Capan-1 cells in the capture experiment; also called tyrosine kinase receptor MET
Experimental: as §1
HeLa and Capan-1 cells were collected by scraping and then lysed on ice with a lysis buffer (20 mM Tris HCl, 50 mM NaCl, 5 mM EDTA and 1% Triton X-100). Lysates were clarified by centrifugation (20,000 g×15 min) and protein concentration was determined (BCA protein assay Kit, Pierce®, Thermo scientific, IL, USA). Streptavidin-Sepharose beads (GE Healthcare) were washed and equilibrated in PBS. Beads were loaded with 15 μg K1B or NB (100 μl beads in a 50:50 PBS:bead slurry) for 20 min at room temperature and immediately washed with PBS. […] Elution fractions were then analyzed by western blotting.

[3] = biological target: T1, MET-Fc (extracellular MET domain fused …); assay: AlphaScreen saturation assay; the reference is a literature value that is not given
Experimental: as §1, with “Dashed” for “FIG. 4. K1B and NB MET binding properties. (a) Structure of NK1 dimer (center, PDB 1BHT) and spatial relative orientation of each N (left) and K1 (right) monomers within the dimer. Dashed”
The binding of K1B/S complexes to MET was examined using AlphaScreen technology. K1B was loaded on streptavidin-coated donor beads and incubated with recombinant extracellular MET-Fc chimera loaded on Protein A-coated acceptor beads. If K1B/S donor beads interact with MET-Fc/Protein A acceptor beads, a chemical energy transfer is possible between the beads, leading to fluorescence emission upon laser excitation. […] Since the bead-based AlphaScreen assay can generate avidity and thus introduce a bias in the estimation of the apparent KD in saturation experiments, it was performed the reciprocal competition assay by adding increasing concentrations of preformed K1B/S complex (2:1 molar ratio) into the K1B/MET-Fc/AlphaScreen bead mixture (FIG. 6). […]

[4] = biological target: T1, MET-Fc (extracellular MET domain fused …); assay: AlphaScreen saturation assay: K1B on streptavidin donor beads, MET-Fc on Protein A acceptor beads
Experimental: as §1, §2

[5] = biological target: T1, MET-Fc (extracellular MET domain fused …); assay: AlphaScreen saturation assay: K1B on streptavidin-coated donor beads, MET-Fc on Protein A-coated acceptor beads (apparent, multivalent display); saturation assay; K1B on streptavidin-coated donor beads (apparent KD, avidity possible)
Experimental: as §1, §2

T1 sequence (P08581 25-932): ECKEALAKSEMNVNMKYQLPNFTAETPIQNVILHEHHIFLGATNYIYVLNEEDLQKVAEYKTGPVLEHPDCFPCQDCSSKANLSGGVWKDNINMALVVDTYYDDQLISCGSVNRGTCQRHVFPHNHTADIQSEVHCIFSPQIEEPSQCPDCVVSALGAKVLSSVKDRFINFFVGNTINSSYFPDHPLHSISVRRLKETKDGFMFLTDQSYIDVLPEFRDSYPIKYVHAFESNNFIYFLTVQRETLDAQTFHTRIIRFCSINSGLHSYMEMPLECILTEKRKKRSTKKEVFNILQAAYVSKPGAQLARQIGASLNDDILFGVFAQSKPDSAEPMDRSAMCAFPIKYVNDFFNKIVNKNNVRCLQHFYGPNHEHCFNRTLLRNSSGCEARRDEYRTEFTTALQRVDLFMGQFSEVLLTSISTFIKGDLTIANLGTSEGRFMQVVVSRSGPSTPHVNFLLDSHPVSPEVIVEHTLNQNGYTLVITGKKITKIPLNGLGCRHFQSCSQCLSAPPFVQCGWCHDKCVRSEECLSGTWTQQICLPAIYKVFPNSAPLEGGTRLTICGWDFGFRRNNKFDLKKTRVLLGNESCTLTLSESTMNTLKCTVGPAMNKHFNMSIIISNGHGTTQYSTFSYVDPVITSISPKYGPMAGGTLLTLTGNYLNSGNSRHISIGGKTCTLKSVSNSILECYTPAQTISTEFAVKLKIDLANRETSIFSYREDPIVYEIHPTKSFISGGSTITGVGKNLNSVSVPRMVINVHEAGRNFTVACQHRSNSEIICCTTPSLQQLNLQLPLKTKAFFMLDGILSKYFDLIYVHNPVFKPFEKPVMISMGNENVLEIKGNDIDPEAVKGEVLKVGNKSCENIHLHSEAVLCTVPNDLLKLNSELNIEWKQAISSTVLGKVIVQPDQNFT
T2 sequence (P08581 25-1390): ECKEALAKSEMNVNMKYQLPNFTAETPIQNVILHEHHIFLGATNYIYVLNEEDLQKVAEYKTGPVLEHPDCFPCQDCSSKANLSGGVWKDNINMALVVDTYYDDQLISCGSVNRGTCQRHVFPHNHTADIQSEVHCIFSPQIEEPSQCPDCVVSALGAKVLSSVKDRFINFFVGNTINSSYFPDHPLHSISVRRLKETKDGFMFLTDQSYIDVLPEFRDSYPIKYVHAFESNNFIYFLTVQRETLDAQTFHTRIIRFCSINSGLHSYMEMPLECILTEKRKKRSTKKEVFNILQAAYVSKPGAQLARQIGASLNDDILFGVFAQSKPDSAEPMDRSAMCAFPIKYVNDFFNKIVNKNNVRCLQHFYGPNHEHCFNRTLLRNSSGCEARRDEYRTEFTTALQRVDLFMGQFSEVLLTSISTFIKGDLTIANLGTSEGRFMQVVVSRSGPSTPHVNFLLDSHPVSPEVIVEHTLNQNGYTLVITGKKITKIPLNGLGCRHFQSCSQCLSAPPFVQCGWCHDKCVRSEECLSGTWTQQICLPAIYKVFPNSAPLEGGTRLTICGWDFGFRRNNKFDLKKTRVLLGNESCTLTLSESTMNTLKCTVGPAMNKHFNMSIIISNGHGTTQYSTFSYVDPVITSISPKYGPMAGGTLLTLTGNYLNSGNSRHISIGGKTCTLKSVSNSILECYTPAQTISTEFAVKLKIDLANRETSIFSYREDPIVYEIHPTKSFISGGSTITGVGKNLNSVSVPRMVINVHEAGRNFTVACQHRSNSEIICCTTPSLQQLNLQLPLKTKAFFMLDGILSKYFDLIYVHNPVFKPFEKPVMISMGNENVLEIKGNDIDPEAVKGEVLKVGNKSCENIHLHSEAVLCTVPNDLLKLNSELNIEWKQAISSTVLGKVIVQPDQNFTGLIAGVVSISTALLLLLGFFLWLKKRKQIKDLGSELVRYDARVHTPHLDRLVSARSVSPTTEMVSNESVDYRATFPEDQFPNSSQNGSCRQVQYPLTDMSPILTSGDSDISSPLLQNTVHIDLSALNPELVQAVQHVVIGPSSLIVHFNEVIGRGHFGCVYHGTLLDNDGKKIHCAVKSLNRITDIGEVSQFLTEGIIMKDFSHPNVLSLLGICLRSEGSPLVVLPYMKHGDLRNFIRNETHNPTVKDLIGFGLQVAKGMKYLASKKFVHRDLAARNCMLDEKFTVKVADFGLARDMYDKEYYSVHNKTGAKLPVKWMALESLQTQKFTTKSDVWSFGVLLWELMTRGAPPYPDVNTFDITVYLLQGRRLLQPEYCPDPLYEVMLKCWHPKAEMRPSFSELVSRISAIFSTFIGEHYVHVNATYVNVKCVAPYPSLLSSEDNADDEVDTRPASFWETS

| Binder | binding result [1] | binding result [2] | fold lower apparent KD than the KD reported for monomeric K1 protein-MET interaction [3] [fold] | EC50 (read off the curve) [4] [nM] | Kd [5] [nM] |
| --- | --- | --- | --- | --- | --- |
| NB (ligand, human, UniProt P14210 31-127, looked up, biotinylated; the site is not stated for NB, isolated N domain, chemically synthesised and biotinylated, not pre-mixed with soluble streptavidin; It is distinct from m9, the NB/S complex pre-mixed 2:1 with streptavidin; In both assays NB is presented on streptavidin-coated beads; also called biotinylated N domain of HGF/SF) single chain: GQRKRRNTIHEFKKSAKTTLIKIDPALKIKTKKVNTADQCANRCTRNKGLPFTCKAFVFDKARKQCLWFPFNSMSSGVKKEFGHEFDLYENKDYIRN | no binding (tested: 300 nM) | no binding |  |  |  |
| K1B (biotinylated K1 domain of HGF/SF, residues 125-209 with C-terminal GGK(biotin) extension) (ligand, C-terminal lysine of the GGK extension modified on its side chain with a biotin group; three native disulfide bonds, also called K1-Biot; biotinylated version of the K1 domain) IRNCIIGKGRSYKGTVSITKSGIKCQPWSSMIPHEHSFLPSSYRGKDLQENYCRNPRGEEGGPWCFTSNPEVRYEVCDIPQCSEVGGK |  |  | ~100 | ~20 | ~16 |
